The text below walks through data of patent US20200123266A1 (Memorial Sloan Kettering, published 2020).

For one test, the target named is T1, ET140-p25 (human, cysteine pairing not given here).
T1 construct: also called peptide 25
T1 peptide: Biotin-SGSGLRCSSNTPPLTCQRY
Put plainly: peptide ELISA, biotin peptide on streptavidin plate, antibody 1 ug/mL. Here is the method:
(§1) The peptides were coated onto Streptavidin plates at 2 ug/mL in PBST (PBS+0.05% Tween-20). After washing and blocking with 3% BSA. After washing, 1 ug/mL ET140-3, ET140-24, ET140-54 or ET901 mIgG1 was added to the wells, respectively. “mIgG1” used in all Examples represents that the variable region is fully human and the Fc part is mouse IgG1. Then HRP anti-mouse IgG detection antibody was added to each well. Finally, the color was developed using TMB substrate. A450 was recorded for data analysis.
(ELISA stands for enzyme-linked immunosorbent assay.)

The next test concerns the target T2, ET140-p26 (human, cysteine pairing not given here).
T2 construct: also called peptide 26
T2 peptide: Biotin-SGSGRCSSNTPPLTCQRYC
The description is as above. Here is the method: as §1

Ends that are not written are not given here. * marks the point of attachment. Biotin = O=C1N[C@H]2[C@H](CS[C@H]2CCCCC(=O)*)N1

B1: ET140-153 mIgG1 (antibody, V domains shown)
VH: QVQLVQSGAEVKKPGSSVKVSCKASGGTFSSYAISWVRQAPGQGLEWMGRIIPILGIANYAQKFQGRVTITADKSTSTAYMELSSLRSEDTAVYYCARGGYYSHDMWSEDWGQGTLVTVSS
VL: LPVLTQPPSASGTPGQRVTISCSGRSSNIGSNSVNWYRQLPGAAPKLLIYSNNQRPPGVPVRFSGSKSGTSASLAISGLQSEDEATYYCATWDDNLNVHYVFGTGTKVTVLG
notes: also called ET140-3 mIgG1; ET140-3
B1: the A450 with ET140-p25 was determined as 0.583; with ET140-p26, 0.225.
